Test results reported in patent US20240076360A1 (University of Pennsylvania, published 2024).

What was measured:
cynomolgus monkey C5 = target: T1, cynomolgus monkey C5 (cynomolgus monkey); assay: ELISA, recombinant C5 coated at 3 µg/ml, serially diluted antibody, HRP anti-IgG4 Fc detection
T1 construct: also called cyno C5; cyno monkey C5
Description: (§1) ELISA wells were coated with recombinant C5 protein of relevant species (3 μg/ml in coating buffer, 100 μl/well, 4° C. overnight). […] Sheep RBC lysis assay was performed as described in Example 3, using 5-20% cynomolgus monkey serum.

mouse C5 = target: T2, mouse C5 (mouse, UniProt P06684 19-1680, limits assumed); assay: ELISA, wells coated with recombinant C5 (3 ug/ml), serially diluted antibody, detection with HRP anti-IgG4 Fc, OD450
T2 construct: also called recombinant mouse C5 protein
T2 sequence (P06684 19-1680 limits assumed): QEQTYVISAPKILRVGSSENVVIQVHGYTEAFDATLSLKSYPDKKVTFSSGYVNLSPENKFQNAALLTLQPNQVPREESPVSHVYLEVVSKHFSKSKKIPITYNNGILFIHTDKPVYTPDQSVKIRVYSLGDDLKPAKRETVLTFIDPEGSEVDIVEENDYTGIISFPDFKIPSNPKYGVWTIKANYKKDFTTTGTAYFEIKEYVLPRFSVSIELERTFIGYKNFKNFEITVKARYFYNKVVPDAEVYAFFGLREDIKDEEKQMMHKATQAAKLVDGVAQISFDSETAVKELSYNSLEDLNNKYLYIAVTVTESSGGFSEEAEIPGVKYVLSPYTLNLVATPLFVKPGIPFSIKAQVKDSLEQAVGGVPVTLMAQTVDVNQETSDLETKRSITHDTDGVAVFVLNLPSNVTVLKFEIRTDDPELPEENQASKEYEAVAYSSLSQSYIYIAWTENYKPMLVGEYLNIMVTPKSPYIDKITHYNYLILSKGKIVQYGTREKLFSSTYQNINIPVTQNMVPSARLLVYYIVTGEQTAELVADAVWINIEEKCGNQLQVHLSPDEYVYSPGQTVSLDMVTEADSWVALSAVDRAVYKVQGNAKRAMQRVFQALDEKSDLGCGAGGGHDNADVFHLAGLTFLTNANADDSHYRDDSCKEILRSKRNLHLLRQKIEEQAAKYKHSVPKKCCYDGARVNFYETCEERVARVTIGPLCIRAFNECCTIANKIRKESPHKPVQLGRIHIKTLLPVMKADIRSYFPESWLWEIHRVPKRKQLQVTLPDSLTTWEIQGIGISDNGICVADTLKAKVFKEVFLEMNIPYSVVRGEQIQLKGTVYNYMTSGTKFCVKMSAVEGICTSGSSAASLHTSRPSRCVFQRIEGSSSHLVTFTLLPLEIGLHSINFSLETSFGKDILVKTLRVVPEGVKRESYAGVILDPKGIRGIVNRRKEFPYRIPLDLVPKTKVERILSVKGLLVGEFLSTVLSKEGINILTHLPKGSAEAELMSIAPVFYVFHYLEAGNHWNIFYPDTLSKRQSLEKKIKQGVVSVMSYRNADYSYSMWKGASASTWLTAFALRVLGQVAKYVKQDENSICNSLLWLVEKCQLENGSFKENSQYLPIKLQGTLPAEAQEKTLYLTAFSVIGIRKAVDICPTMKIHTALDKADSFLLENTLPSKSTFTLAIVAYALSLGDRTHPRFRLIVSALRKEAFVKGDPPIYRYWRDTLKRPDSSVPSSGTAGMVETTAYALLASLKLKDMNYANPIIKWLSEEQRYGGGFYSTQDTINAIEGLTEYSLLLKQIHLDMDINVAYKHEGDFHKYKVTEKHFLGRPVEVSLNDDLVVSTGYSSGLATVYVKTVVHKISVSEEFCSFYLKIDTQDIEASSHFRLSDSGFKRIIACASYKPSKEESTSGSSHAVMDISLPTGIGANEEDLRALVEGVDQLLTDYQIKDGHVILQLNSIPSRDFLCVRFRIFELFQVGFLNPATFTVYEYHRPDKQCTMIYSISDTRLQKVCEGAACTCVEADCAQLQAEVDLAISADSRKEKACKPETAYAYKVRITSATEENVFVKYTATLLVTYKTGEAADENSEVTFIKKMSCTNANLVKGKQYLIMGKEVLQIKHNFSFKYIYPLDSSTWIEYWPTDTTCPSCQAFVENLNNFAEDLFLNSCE
Description: as §1

rat C5 = target: T3, rat C5 (rat, UniProt P08650 19-1681, limits assumed); assay: as above
T3 construct: also called recombinant rat C5 protein
T3 sequence (P08650 19-1681 limits assumed): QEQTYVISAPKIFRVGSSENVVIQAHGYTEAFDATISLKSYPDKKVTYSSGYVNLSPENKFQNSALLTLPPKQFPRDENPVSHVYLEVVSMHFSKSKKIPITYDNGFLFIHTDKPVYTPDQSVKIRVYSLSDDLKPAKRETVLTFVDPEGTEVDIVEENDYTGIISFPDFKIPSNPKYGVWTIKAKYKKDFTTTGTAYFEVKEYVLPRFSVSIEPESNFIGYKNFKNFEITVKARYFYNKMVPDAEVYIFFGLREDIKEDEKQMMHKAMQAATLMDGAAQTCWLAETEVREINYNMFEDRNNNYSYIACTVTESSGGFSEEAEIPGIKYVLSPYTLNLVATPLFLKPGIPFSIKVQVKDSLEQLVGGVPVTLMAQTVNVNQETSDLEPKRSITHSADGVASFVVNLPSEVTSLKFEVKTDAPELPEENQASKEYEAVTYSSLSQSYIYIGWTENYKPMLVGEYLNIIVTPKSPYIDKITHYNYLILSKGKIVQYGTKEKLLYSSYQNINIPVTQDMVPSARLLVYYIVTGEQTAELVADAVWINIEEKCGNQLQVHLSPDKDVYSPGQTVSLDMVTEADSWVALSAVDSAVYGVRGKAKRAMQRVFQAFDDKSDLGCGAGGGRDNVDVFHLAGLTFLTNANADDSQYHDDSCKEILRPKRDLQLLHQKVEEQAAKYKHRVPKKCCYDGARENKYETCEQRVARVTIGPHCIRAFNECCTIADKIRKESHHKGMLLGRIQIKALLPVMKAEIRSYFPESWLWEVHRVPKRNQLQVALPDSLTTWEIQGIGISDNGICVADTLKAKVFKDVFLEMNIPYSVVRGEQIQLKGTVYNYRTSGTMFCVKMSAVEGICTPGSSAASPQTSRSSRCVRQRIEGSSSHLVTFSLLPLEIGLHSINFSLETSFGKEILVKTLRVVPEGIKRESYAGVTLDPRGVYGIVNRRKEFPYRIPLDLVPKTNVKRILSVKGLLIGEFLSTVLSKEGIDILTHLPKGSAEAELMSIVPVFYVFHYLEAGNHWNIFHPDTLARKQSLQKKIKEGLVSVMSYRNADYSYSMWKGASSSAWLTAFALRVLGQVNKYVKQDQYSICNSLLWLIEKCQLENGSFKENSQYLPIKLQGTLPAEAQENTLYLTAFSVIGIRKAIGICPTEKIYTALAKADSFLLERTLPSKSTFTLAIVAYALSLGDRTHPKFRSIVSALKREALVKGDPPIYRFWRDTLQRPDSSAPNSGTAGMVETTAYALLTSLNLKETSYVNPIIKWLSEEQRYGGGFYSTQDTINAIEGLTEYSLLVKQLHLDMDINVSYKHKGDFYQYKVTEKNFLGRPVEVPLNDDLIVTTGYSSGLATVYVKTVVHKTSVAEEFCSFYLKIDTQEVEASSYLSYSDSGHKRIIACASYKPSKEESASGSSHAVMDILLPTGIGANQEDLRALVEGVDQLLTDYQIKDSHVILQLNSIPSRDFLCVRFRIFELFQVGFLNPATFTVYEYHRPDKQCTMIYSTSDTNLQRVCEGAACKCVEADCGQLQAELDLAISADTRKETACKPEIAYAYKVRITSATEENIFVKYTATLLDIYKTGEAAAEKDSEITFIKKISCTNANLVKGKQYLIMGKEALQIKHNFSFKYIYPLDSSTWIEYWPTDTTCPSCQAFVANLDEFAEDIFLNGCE
Description: as §1

rabbit C5 = target: T4, rabbit C5 (rabbit, UniProt G1SPF9 19-673; G1SPF9 678-1675); assay: as above
T4 construct: also called recombinant rabbit C5 protein
T4 sequence (beta, as listed by the source limits assumed, chain 1 of 2): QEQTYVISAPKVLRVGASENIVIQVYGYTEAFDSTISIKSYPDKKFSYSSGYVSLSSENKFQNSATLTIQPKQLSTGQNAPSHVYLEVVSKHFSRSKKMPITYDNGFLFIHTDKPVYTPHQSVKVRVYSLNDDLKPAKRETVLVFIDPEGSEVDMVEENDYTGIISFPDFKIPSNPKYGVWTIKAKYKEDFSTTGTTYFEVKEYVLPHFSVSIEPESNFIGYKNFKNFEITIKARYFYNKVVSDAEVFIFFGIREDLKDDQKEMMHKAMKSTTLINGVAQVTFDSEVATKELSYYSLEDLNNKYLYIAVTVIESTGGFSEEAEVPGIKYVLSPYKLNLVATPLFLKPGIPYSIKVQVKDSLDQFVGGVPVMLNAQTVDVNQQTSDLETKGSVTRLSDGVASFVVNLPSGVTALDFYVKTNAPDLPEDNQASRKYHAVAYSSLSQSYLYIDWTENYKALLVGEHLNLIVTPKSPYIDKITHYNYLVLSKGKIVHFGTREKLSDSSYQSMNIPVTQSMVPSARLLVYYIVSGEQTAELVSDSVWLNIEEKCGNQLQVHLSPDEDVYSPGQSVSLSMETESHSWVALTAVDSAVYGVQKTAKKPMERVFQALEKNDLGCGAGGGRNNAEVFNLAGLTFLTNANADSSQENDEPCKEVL
T4 sequence (alpha, as listed by the source limits assumed, chain 2 of 2): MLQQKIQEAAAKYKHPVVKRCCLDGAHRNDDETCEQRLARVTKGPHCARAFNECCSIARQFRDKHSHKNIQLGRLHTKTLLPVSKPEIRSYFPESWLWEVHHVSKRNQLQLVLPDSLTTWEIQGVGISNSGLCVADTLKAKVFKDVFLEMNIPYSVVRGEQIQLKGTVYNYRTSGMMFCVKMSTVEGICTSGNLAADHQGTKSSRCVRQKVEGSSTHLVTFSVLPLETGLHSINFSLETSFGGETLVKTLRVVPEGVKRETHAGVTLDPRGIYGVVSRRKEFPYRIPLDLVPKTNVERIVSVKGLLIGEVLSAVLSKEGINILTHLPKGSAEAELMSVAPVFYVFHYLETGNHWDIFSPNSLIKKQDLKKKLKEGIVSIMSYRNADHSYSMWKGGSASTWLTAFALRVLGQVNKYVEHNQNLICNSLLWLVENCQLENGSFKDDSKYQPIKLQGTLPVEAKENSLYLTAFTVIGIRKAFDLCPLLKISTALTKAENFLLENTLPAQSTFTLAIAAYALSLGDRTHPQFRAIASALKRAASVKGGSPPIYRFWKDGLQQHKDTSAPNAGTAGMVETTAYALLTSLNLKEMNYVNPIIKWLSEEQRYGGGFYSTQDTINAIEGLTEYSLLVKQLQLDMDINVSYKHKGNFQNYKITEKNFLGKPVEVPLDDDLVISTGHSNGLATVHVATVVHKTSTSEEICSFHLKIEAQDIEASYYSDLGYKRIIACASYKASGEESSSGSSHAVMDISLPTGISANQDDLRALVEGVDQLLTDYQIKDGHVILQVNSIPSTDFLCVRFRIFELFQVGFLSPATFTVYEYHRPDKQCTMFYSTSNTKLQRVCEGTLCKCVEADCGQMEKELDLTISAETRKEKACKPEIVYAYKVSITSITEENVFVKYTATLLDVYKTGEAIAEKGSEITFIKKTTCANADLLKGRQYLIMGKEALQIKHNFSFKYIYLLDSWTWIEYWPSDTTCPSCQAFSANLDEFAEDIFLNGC
Description: as §1

EC50 (cynomolgus monkey C5): ~0.2 µg/mL
binding result (mouse C5): no binding
binding result (rat C5): no binding
binding result (rabbit C5): no binding
B1: Y32H/Q38R/L54H anti-C5 mAb (antibody, human IgG4 S228P, V domains shown)
VH: QVQLVQSGAEVKKPGASVKVSCKASGYIFSNHWIQWVRQAPGQGLEWMGEILPGSGSTEYTENFKDRVTMTRDTSTSTVYMELSSLRSEDTAVYYCARYFFGSSPNWYFDVWGQGTLVTVSS
VL: DIQMTQSPSSLSASVGDRVTITCGASENIYGALNWYQRKPGKAPKLLIYGATNHADGVPSRFSGSGSGTDFTLTISSLQPEDFATYYCQNVLNTPLTFGQGTKVEIK
